Reference: patent US20100196385A1 (AstraZeneca / MedImmune, published 2010)

Legend:
[1] = target: T1, human Jagged1 (human, UniProt P78504 34-1218); assay: FACS, 5 µg/ml, 293T cells with human Jagged1
T1 construct: whole, on cells
Method: (§1) The ability of the purified antibodies to bind to human Jagged1 and Dll1 was determined by FACS analysis. […] Cells were resuspended in PBS containing 2% FCS and seeded at 50000 cells/well into V-bottomed plates. Anti-DLL4 antibodies diluted in PBS containing 2% FCS were added at a final concentration of 5 or 15 μg/ml and plates were incubated for 1 h at 4° C. […] Data was analyzed by comparing the shift in geometric mean fluorescence in the mock-transfected cells to that observed in the Jagged1- or Dll1-transfected cells and is shown in Tables 16 and 17.

[2] = target: T2, full length human DLL4 (human, UniProt Q9NR61 27-685); assay: FMAT competition, purified antibody vs Alexa-647 human Notch1/Fc, 293T cells with human DLL4
T2 construct: whole, on cells; also called native DLL4 expressed in HEK293 cells
Method: To discriminate between the purified antibodies based upon their ability to prevent the interaction between full-length recombinant DLL4 and soluble Notch1/Fc, the following assays were performed. Transfected and untransfected 239T cells were reconstituted in PBS containing 2% FCS and 5000 transfected and 17500 non-transfected cells were plated in 30 μl into wells of a 384-well tissue culture plate (Corning Costar, catalog #3712). Subsequently, 30 μl of purified antibodies, serial diluted from 5 μg/ml hybridoma supernatant was added and plates were incubated at 4° C. for 1 h, at which time 20 μl of 100 ng/ml Alexa-647 labeled human Notch1/Fc was added. After a further 3 h incubation at 4° C., the amount of bound Notch1/Fc was determined by reading the fluorescence in each well using an FMAT 8200 instrument (Applied Biosystems).

[3] = target: T2, full length human DLL4; assay: FMAT competition, supernatant vs Alexa-647 human Notch1/Fc, 293T cells with human DLL4
Method: Transfected and untransfected 239T cells were reconstituted in PBS containing 2% FCS and 5000 transfected and 17500 non-transfected cells were plated in 20 μl into wells of a 384-well tissue culture plate (Corning Costar, catalog #3712). Subsequently, 20 μl of hybridoma supernatant was added and plates were incubated at 4° C. for 1 h, at which time 20 μl of Alexa-647 labeled human Notch1/Fc was added at a final concentration of 6.7 ng/ml. After a further 3 h incubation at 4° C., the amount of bound Notch1/Fc was determined by reading the fluorescence in each well using an FMAT 8200 instrument (Applied Biosystems). Results are expressed as % inhibitions with the minimum inhibition in the assay being determined by the effects of non-DLL4 binding supernatants prepared in a similar way as described in example 2, and the maximum inhibition being defined as the signal obtained in the presence of a saturating concentration of unlabeled Notch1/Fc. N.T.=not tested

[4] = target: DLL4 extracellular domain (R&D systems, catalog #1506-D4/CF) (UniProt Q9NR61 27-529, limits assumed); assay: cell-based or functional assay
[5] = target: T1, human Jagged1; assay: FMAT, hybridoma supernatant, 293T cells with human Jagged1
Method: (§2) Cells diluted in PBS containing 2% FBS were seeded at a density of 3000 expressing and 15000 mock transfected cells per well in 384 well plates (Corning Costar, catalog #3712). Immediately after plating, 15 or 20 μl/well of hybridoma supernatants and 10 μl/well of secondary antibody (Goat anti-human IgG Fc Cy5, final concentration 750 ng/ml) were added and plates incubated for 3 h at room temperature prior to reading the fluorescence on the FMAT 8200 instrument (Applied Biosystems). The binding of human Notch1/Fc chimera (R&D systems, catalog #3647-TK), diluted 1:2 from 2.86 μg/ml was used as a positive control for DLL4 and human Notch3/Fc chimera diluted from 10 μg/ml was used a positive control for binding to Jagged1. Results for 12 hybridoma supernatants showing binding of hybridoma supernatants to human/cynomolgus monkey DLL4 and human Jagged are shown in Table 3.

[6] = target: T3, human Dll1 (human, UniProt O00548 18-723); assay: FACS, 15 µg/ml, 293T cells with human Dll1 vs mock
T3 construct: whole, on cells
T3 sequence (looked up): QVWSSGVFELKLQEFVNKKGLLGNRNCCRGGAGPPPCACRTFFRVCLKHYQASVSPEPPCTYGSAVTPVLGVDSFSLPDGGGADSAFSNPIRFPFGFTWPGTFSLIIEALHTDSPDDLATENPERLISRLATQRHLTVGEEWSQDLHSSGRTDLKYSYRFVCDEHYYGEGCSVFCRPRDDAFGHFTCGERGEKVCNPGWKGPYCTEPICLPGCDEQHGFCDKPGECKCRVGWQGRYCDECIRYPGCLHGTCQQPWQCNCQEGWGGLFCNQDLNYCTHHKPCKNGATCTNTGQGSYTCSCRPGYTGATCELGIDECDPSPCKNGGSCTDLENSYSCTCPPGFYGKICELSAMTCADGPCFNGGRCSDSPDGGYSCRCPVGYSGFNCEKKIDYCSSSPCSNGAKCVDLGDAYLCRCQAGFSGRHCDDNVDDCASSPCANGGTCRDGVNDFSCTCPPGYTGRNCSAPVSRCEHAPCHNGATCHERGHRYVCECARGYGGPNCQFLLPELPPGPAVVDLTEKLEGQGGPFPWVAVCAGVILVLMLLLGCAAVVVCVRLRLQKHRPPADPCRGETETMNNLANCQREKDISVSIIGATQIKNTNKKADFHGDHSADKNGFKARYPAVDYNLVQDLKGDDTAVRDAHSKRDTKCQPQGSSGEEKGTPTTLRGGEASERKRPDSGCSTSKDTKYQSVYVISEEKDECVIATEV
Method: as §1

[7] = target: T3, human Dll1; assay: FACS, 15 µg/ml, 293T cells with human Dll1
Method: as §1

[8] = target: T2, full length human DLL4; assay: FMAT, hybridoma supernatant, 293T cells with human DLL4
Method: as §2

[9] = target: T1, human Jagged1; assay: FACS, 5 µg/ml, 293T cells with human Jagged1 vs mock
Method: as §1

T2 sequence (Q9NR61 27-685): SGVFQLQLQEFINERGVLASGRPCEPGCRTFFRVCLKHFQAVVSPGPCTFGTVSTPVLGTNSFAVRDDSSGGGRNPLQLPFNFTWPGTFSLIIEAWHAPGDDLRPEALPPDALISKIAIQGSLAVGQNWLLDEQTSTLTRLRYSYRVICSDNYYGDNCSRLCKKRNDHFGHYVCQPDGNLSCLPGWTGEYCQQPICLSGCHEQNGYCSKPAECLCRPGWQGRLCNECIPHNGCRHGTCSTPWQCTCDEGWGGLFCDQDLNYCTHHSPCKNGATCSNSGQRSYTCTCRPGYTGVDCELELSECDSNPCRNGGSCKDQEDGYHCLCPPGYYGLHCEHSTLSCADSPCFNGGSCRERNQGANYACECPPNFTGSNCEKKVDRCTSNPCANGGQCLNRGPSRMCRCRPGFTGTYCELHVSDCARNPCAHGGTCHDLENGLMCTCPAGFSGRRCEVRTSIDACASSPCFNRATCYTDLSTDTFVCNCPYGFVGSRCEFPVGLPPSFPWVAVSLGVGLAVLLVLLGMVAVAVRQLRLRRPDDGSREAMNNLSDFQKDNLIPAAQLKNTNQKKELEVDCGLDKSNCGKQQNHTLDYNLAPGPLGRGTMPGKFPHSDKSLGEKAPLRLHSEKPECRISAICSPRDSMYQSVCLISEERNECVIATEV
Sequence of DLL4 extracellular domain (R&D systems, catalog #1506-D4/CF) (Q9NR61 27-529 limits assumed): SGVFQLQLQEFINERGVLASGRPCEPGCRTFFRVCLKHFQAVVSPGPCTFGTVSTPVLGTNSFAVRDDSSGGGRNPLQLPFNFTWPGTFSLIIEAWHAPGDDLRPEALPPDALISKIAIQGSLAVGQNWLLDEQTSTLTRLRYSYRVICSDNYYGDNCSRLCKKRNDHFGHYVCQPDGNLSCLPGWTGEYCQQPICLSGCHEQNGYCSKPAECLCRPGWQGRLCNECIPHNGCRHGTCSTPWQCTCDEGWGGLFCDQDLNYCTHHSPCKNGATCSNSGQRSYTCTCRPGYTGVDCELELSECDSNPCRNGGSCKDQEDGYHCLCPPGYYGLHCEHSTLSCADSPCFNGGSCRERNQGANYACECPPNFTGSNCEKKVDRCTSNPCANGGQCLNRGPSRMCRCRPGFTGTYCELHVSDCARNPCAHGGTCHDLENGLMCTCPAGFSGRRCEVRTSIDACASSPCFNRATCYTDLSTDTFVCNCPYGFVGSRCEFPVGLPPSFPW
T1 sequence (P78504 34-1218): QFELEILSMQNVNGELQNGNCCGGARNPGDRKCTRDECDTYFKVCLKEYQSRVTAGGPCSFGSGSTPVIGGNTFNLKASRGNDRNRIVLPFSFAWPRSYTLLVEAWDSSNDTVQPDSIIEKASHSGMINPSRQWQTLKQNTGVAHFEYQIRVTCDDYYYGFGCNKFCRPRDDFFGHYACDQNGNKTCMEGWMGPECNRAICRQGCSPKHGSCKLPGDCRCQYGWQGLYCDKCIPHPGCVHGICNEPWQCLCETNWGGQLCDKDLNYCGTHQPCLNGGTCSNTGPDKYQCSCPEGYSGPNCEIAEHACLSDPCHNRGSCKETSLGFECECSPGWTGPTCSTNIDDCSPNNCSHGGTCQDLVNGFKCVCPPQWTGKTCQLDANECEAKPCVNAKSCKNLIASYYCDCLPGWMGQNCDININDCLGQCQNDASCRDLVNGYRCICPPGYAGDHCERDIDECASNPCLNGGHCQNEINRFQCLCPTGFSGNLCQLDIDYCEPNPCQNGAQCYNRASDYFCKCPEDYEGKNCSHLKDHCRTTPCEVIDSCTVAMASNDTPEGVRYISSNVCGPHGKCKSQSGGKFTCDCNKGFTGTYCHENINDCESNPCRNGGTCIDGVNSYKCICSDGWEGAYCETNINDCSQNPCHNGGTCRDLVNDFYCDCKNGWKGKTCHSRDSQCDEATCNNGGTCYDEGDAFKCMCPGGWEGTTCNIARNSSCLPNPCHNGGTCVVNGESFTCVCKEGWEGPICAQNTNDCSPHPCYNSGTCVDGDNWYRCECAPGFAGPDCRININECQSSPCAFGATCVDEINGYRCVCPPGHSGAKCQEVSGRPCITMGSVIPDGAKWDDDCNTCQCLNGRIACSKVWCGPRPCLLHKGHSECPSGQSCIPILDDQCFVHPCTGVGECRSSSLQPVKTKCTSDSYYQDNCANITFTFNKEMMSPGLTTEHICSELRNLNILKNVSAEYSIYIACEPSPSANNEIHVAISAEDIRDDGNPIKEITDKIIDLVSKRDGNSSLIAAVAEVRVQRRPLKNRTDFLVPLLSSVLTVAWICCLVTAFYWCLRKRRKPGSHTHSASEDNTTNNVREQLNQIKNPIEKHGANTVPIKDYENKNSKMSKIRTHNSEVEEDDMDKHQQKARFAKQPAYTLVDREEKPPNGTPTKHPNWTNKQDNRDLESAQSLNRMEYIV

B1: 17F3 (antibody, IgG2, V domains shown)
VH: QVQLVQSGAEVKKPGASVKVSCKASGYTFTNYGISWVRQAPGQGLEWMGWINAYNGNTNYAQNLQGRVTMTTDTSTNTAYMELRSLRSDDTAVYYCARVAPAAFFDYWDQGTLVTVSS
VL: SYELTQPPSVSVSPGQTASITCSGDKLGDKYVCWYQQKPGQSPVLVIYQDNKRPSGIPERFSGSNSGNTATLIISGTQAMDEADYYCQAWDSSTVFGGGTKLTVL
notes: Fully human; also used where no isotype is printed
With B1 the “Jagged1/293T X Geo mean” value [1] was 16.3, the “% inhibition at 0.020 nM” value [2] was 14% and the “% inhibition at 0.070 nM” value [2] was 25%. The “% inhibition at 0.21 nM” value [2] was 14%, the “% inhibition at 0.62 nM” value [2] was 29% and the “% inhibition at 1.9 nM” value [2] was 69%. For the same binder, the “% inhibition at 5.6 nM” value [2] was 121%, the “% inhibition at 16.7 nM” value [2] was 115% and the IC50 [2] was 1.81 nM. The “% inhibition n = 2” value [3] was 108%, the “% inhibition n = 3” value [3] was 131% and the Mean % inhibition [3] was 120%. For the same binder, the “% inhibition 1 µg/ml, AVERAGE (HUVEC proliferation on coated DLL4)” value (“% inhibition 1 µg/ml, AVERAGE” for short) [4] was 30%, the “% inhibition 1 µg/ml, N = 1 (HUVEC proliferation on coated DLL4)” value [4] was 24% and the “% inhibition 1 µg/ml, N = 2 (HUVEC proliferation on coated DLL4)” value [4] was 35%. The “% inhibition 10 µg/ml, AVERAGE (HUVEC proliferation on coated DLL4)” value (“% inhibition 10 µg/ml, AVERAGE” below) [4] was 52%, the “% inhibition 10 µg/ml, N = 1 (HUVEC proliferation on coated DLL4)” value [4] was 48% and the “% inhibition 10 µg/ml, N = 2 (HUVEC proliferation on coated DLL4)” value [4] was 56%. It also gave a Count [5] of 30, an FL1 [5] of 1440 and an FL1 x count [5] of 43100. The Dll1/mock ratio [6] was 1.14, the “Dll1/293T X Geo mean” value [7] was 47 and the Count [8] was 219. For the same binder, the FL1 [8] was 11300, the FL1 x count [8] was 2.47e+06 and the Jagged1/mock ratio [9] was 1.08.

B2: 12A1 (antibody, IgG4, V domains shown)
VH: QVQLVQSGAEVKRPGASVKVSCKASGYTFTSYGITWVRQAPGQGLEYMGWISTYNGNTDYAQKFQGRVTMTADISTSTAYMELRSLRSDDTAVYYCARERGSYFDYWGQGTLVTVSS
VL: SYELTQPPSVSVSPGQTARITCSGDTLPKKYAYWYQQKSGQAPVLVIYEDIKRPSGIPERFSGSSSGTMATLTISGAQVEDEADYYCFSTDSGGNHKFGGGTKLTVL
notes: as for B1
With B2 the “Jagged1/293T X Geo mean” value [1] was 14.4, the “% inhibition at 0.020 nM” value [2] was 6% and the “% inhibition at 0.070 nM” value [2] was -18%. The “% inhibition at 0.21 nM” value [2] was 9%, the “% inhibition at 0.62 nM” value [2] was 15% and the “% inhibition at 1.9 nM” value [2] was 88%. The “% inhibition at 5.6 nM” value [2] was 119%, the “% inhibition at 16.7 nM” value [2] was 101% and the IC50 [2] was 1.48 nM. The “% inhibition n = 1” value [3] was 103%, the “% inhibition n = 2” value [3] was 147% and the “% inhibition n = 3” value [3] was 144%. The Mean % inhibition [3] was 131%, the “% inhibition 1 µg/ml, AVERAGE” value [4] was 56% and the “% inhibition 1 µg/ml, N = 1 (HUVEC proliferation on coated DLL4)” value [4] was 50%. The “% inhibition 1 µg/ml, N = 2 (HUVEC proliferation on coated DLL4)” value [4] was 62%, the “% inhibition 10 µg/ml, AVERAGE” value [4] was 74% and the “% inhibition 10 µg/ml, N = 1 (HUVEC proliferation on coated DLL4)” value [4] was 62%. The “% inhibition 10 µg/ml, N = 2 (HUVEC proliferation on coated DLL4)” value [4] was 85%, the Count [5] was 25 and the FL1 [5] was 988. For the same binder, the FL1 x count [5] was 24700, the Dll1/mock ratio [6] was 1.12 and the “Dll1/293T X Geo mean” value [7] was 47. The Count [8] was 179, the FL1 [8] was 9520 and the FL1 x count [8] was 1.76e+06. It also gave a Jagged1/mock ratio [9] of 1.11.

B3: 4B3 (antibody, IgG4, V domains shown)
VH: QVQLVQSGAEVRKSGASVKVSCKASGYSFTTYDINWVRQATGQGLEWMGWMNPNSGYTDYAQKFQGRVTLTRNMSIDTAYMELSSLRSEDTAVYYCARAYYYDSSAYYLFDYWGQGTLVTVSS
VL: DIQMTQSPSSLSASVGDRVTITCRASQGISNYLAWFQQKPGKAPKSLIYAASSLQSGVPSKFSGSGSGTDFTLTISSLQPEDFATYFCQQYISYPLTFGGGTKVEI
notes: as for B1
B3 was tested, and the “Jagged1/293T X Geo mean” value [1] was 18.7, the “% inhibition at 0.020 nM” value [2] was -1% and the “% inhibition at 0.070 nM” value [2] was 5%. The “% inhibition at 0.21 nM” value [2] was -3%, the “% inhibition at 0.62 nM” value [2] was 20% and the “% inhibition at 1.9 nM” value [2] was 40%. For the same binder, the “% inhibition at 5.6 nM” value [2] was 89%, the “% inhibition at 16.7 nM” value [2] was 117% and the IC50 [2] was 3.33 nM. The “% inhibition n = 1” value [3] was 106%, the “% inhibition n = 2” value [3] was 145% and the “% inhibition n = 3” value [3] was 147%. For the same binder, the Mean % inhibition [3] was 133%, the “% inhibition 1 µg/ml, AVERAGE” value [4] was 31% and the “% inhibition 1 µg/ml, N = 1 (HUVEC proliferation on coated DLL4)” value [4] was 20%. The “% inhibition 1 µg/ml, N = 2 (HUVEC proliferation on coated DLL4)” value [4] was 41%, the “% inhibition 10 µg/ml, AVERAGE” value [4] was 44% and the “% inhibition 10 µg/ml, N = 1 (HUVEC proliferation on coated DLL4)” value [4] was 38%. For the same binder, the “% inhibition 10 µg/ml, N = 2 (HUVEC proliferation on coated DLL4)” value [4] was 49%, the Count [5] was 2 and the FL1 [5] was 4720. For the same binder, the FL1 x count [5] was 9450, the Dll1/mock ratio [6] was 1.17 and the “Dll1/293T X Geo mean” value [7] was 30.6. The Count [8] was 206, the FL1 [8] was 11000 and the FL1 x count [8] was 2.27e+06. The Jagged1/mock ratio [9] was 1.04.
